# Data reported in US20230167164A1.
# Target: IFN-γ receptor (UniProt P15260)
# Assay: cell-based or functional assay
# Sequence of IFN-γ receptor (P15260 18-489 limits assumed, chain 1 of 2): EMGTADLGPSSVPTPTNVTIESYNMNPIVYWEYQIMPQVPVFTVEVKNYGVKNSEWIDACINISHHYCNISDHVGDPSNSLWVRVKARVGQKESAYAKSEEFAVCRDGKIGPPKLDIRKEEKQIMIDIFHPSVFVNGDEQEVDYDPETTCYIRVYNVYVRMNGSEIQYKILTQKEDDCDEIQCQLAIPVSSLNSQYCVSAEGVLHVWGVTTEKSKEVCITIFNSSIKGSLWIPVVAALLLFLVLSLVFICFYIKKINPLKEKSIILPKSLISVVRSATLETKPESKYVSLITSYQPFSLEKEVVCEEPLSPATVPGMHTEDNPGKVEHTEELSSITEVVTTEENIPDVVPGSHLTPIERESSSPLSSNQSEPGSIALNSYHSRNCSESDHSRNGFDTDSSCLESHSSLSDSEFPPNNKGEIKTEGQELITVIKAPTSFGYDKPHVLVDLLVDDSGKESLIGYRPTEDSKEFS
# Sequence of IFN-γ receptor (P38484 22-337 limits assumed, chain 2 of 2, further chain): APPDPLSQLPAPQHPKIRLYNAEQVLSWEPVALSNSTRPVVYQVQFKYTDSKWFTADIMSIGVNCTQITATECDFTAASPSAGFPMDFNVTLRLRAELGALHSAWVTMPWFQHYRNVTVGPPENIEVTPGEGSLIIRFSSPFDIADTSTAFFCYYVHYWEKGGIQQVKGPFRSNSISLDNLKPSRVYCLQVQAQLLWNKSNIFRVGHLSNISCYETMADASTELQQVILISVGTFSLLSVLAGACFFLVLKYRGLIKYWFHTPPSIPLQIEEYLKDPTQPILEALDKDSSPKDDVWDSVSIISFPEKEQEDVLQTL
substance,measurement,value
recombinant IFN-γ (free state) (from UniProt P01579 24-166) (ligand),"PD-L1 expression induced on HEK-CD4-IFN-γ cells, MFI of anti-PD-L1 APC staining",67 MFI
same,"PD-L1 expression induced on HEK-IFN-γ cells, MFI of anti-PD-L1 APC staining",75 MFI
